Our source for the Km, kcat and kcat/Km values is publication PMC10952495, “Glycosylation increases active site rigidity leading to improved enzyme stability and turnover” (The Febs Journal, 2023).

Substrate in the data set: Nc1ccccc1N
Description: purified protein. It is filed as biochemical, Armoracia rusticana. Conditions: 25.0 °C.

The mark [1] stands for this setting: holo enzyme 0.5 nM, 3% v/v H2O2, 50 mM Tris pH 8.0, 298 K.
The mark [2] stands for this setting: holo enzyme 10 nM, 3% v/v H2O2, 20 mM Bis-Tris pH 7.0, 298 K.

B1: pHRP (plant horseradish peroxidase, glycosylated) (Armoracia rusticana) (protein)
chain: QLTPTFYDNSCPNVSNIVRDTIVNELRSDPRIAASILRLHFHDCFVNGCDASILLDNTTSFRTEKDAFGNANSARGFPVIDRMKAAVESACPRTVSCADLLTIAAQQSVTLAGGPSWRVPLGRRDSLQAFLDLANANLPAPFFTLPQLKDSFRNVGLNRSSDLVALSGGHTFGKNQCRFIMDRLYNFSNTGLPDPTLNTTYLQTLRGLCPLNGNLSALVDFDLRTPTIFDNKYYVNLEEQKGLIQSDQELFSSPNATDTIPLVRSFANSTQTFFNAFVEAMDRMGNITPLTGTQGQIRLNCRVVNSNS
notes: native from horseradish root, 8 N-linked glycans, clinical diagnostic grade (Ortho Clinical Diagnostics), with and without C-terminal serine, monomer
Consider B1, for which, under setting [1], the Michaelis constant (Km) – broadly, the substrate concentration at which the rate is half of its maximum – came out at 920 ± 100 µM; the catalytic constant (kcat) (in general, the number of substrate molecules converted per active site and unit of time at saturation) is 917 ± 53 s⁻¹; the kcat/Km (in general, the turnover number divided by the Michaelis constant) amounted to 1e+06 M⁻¹ s⁻¹.

B2: rHRP (recombinant horseradish peroxidase, nonglycosylated) (Armoracia rusticana) (protein)
chain: B1 chain
On to B2, for which, under setting [2], the Km was 980 ± 130 µM, the turnover number (kcat) was found to be 86.2 ± 4.7 s⁻¹ and the kcat/Km was determined as 88200 M⁻¹ s⁻¹.
